Experimental data from article PMC8170675, “Allostery through DNA drives phenotype switching”.
Residue numbers refer to the chain shown, from its start.

Tests used:
[1] = target: T1, ComK (Bacillus subtilis, UniProt P40396); assay: smFRET; conditions: amino-C6-dT/dA at dye sites, EMSA: 20 mM Tris pH 7.0, 50 mM L-Arg, 5 mM MgCl2, 150 mM KCl, 10 mM DTT, 0.001% Tween-20, 25 nM DNA, 20 min, smFRET: room temperature, 20 mM DTT
T1 sequence: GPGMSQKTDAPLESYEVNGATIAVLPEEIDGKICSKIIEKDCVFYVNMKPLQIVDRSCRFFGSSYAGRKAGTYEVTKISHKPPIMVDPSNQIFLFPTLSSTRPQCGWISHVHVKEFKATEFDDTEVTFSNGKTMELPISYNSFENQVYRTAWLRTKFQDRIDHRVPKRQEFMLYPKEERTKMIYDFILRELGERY

[2] = target: T1, ComK; assay: smFRET; Hill n 3.55 ± 0.12; unit not in visible table header, inferred from fit parameters; EMSA: 20 mM Tris pH 7.0, 50 mM L-Arg, 5 mM MgCl2, 150 mM KCl, 10 mM DTT, 0.001% Tween-20, 25 nM DNA, 20 min; smFRET: room temperature, 50 mM L-Arg, 20 mM DTT; conditions: protein: recombinant; tags: N-terminal His6-HRV3C tag removed; GPG remains at the N-terminus; chain copies: 4; label: AlexaFluor 488 / AlexaFluor 594; blunt
[3] = target: T2, ΔCys ComK (Bacillus subtilis, UniProt P40396 1-192, C31A;C39A;C55A;C102A); assay: smFRET; 30 pM DNA, 100 nM protein; EMSA: 20 mM Tris pH 7.0, 50 mM L-Arg, 5 mM MgCl2, 150 mM KCl, 10 mM DTT, 0.001% Tween-20, 25 nM DNA, 20 min; smFRET: room temperature, 50 mM L-Arg, 20 mM DTT; conditions: protein: recombinant; chain copies: 4; label: AlexaFluor 488 / AlexaFluor 594; blunt
T2 sequence: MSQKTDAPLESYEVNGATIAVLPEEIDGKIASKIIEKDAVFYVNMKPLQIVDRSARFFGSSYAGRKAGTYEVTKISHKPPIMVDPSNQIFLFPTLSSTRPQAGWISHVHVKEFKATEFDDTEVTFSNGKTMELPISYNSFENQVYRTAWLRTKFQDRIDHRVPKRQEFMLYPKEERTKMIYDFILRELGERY

[4] = target: T1, ComK; assay: smFRET; Hill n 3.44 ± 0.27; unit inferred; EMSA: 20 mM Tris pH 7.0, 50 mM L-Arg, 5 mM MgCl2, 150 mM KCl, 10 mM DTT, 0.001% Tween-20, 25 nM DNA, 20 min; smFRET: room temperature, 50 mM L-Arg, 20 mM DTT; conditions: protein: recombinant; tags: N-terminal His6-HRV3C tag removed; GPG remains at the N-terminus; chain copies: 4; label: AlexaFluor 488 / AlexaFluor 594; blunt
[5] = target: T1, ComK; assay: cryo-EM; 50 mM L-Arg; two ComK per box; EMSA: 20 mM Tris pH 7.0, 50 mM L-Arg, 5 mM MgCl2, 150 mM KCl, 10 mM DTT, 0.001% Tween-20, 25 nM DNA, 20 min; smFRET: room temperature, 50 mM L-Arg, 20 mM DTT; conditions: protein: recombinant; tags: N-terminal His6-HRV3C tag removed; GPG remains at the N-terminus; chain copies: 4; blunt
[6] = target: T1, ComK; assay: smFRET; Hill n 2.97 ± 0.28; unit inferred; EMSA: 20 mM Tris pH 7.0, 50 mM L-Arg, 5 mM MgCl2, 150 mM KCl, 10 mM DTT, 0.001% Tween-20, 25 nM DNA, 20 min; smFRET: room temperature, 50 mM L-Arg, 20 mM DTT; conditions: protein: recombinant; tags: N-terminal His6-HRV3C tag removed; GPG remains at the N-terminus; chain copies: 4; label: AlexaFluor 488 / AlexaFluor 594; blunt
[7] = target: T1, ComK; assay: smFRET; Hill n 3.05 ± 0.08; unit inferred; EMSA: 20 mM Tris pH 7.0, 50 mM L-Arg, 5 mM MgCl2, 150 mM KCl, 10 mM DTT, 0.001% Tween-20, 25 nM DNA, 20 min; smFRET: room temperature, 50 mM L-Arg, 20 mM DTT; conditions: protein: recombinant; tags: N-terminal His6-HRV3C tag removed; GPG remains at the N-terminus; chain copies: 4; label: AlexaFluor 488 / AlexaFluor 594; blunt
[8] = target: T1, ComK; assay: smFRET; Hill n 2.93 ± 0.28; unit inferred; EMSA: 20 mM Tris pH 7.0, 50 mM L-Arg, 5 mM MgCl2, 150 mM KCl, 10 mM DTT, 0.001% Tween-20, 25 nM DNA, 20 min; smFRET: room temperature, 50 mM L-Arg, 20 mM DTT; conditions: protein: recombinant; tags: N-terminal His6-HRV3C tag removed; GPG remains at the N-terminus; chain copies: 4; label: AlexaFluor 488 / AlexaFluor 594; blunt ends, internal mismatches in spacer
[9] = target: T1, ComK; assay: smFRET; Hill n 2.28 ± 0.16; unit inferred; EMSA: 20 mM Tris pH 7.0, 50 mM L-Arg, 5 mM MgCl2, 150 mM KCl, 10 mM DTT, 0.001% Tween-20, 25 nM DNA, 20 min; smFRET: room temperature, 50 mM L-Arg, 20 mM DTT; conditions: protein: recombinant; tags: N-terminal His6-HRV3C tag removed; GPG remains at the N-terminus; chain copies: 4; label: AlexaFluor 488 / AlexaFluor 594; blunt
[10] = target: T1, ComK; assay: smFRET; Hill n 4.34 ± 0.32; unit inferred; EMSA: 20 mM Tris pH 7.0, 50 mM L-Arg, 5 mM MgCl2, 150 mM KCl, 10 mM DTT, 0.001% Tween-20, 25 nM DNA, 20 min; smFRET: room temperature, 50 mM L-Arg, 20 mM DTT; conditions: protein: recombinant; tags: N-terminal His6-HRV3C tag removed; GPG remains at the N-terminus; chain copies: 4; label: AlexaFluor 488 / AlexaFluor 594; blunt

Molecule: comG: isolated box 2 labelled
- K half ([1]; Hill n 1.59 ± 0.09, unit inferred): 48 nM

Molecule: comG: isolated box 1 labelled
- K half ([1]; Hill n 1.76 ± 0.02, unit inferred): 73 nM

B1: comG: box 1 labelled (dsDNA)
DNA 1: CAGTTGAAAGTCTTTTTTCTTGCCAGAAAGAATTGGTTTTTCAGCATATAACATCTCACAAAATCACGTTTTCCCTGTTTGATTACCTTTTCT
DNA 2: AGAAAAGGTAATCAAACAGGGAAAACGTGATTTTGTGAGATGTTATATGCTGAAAAACCAATTCTTTCTGGCAAGAAAAAAGACTTTCAACTG
modifications: amino-C6-dT/dA at dye sites
- apparent K (half saturation) [2]: 15 ± 1 nM

B2: comG: box 2 labelled (dsDNA)
DNA 1: B1 DNA 1
DNA 2: B1 DNA 2
modifications: amino-C6-dT/dA at dye sites
- binding result [3]: no binding
- apparent K (half saturation) [4]: 16 ± 1 nM

B3: comG unlabelled (dsDNA)
DNA 1: B1 DNA 1
DNA 2: B1 DNA 2
- binding result [5]: binds

B4: addAB unlabelled (dsDNA)
DNA 1: GATGTGCGGAGATAATCAGCTTTTTATATGTGAAAAGGCCGTTTTTACCAATAGATC
DNA 2: GATCTATTGGTAAAAACGGCCTTTTCACATATAAAAAGCTGATTATCTCCGCACATC
- binding result [5]: binds

B5: comG GC-55%: box 1 labelled (dsDNA)
DNA 1: B1 DNA 1 with T47G, A48C, T54G
DNA 2: B1 DNA 2 with A40C, T46G, A47C
modifications: amino-C6-dT/dA at dye sites
- apparent K (half saturation) [6]: 16 ± 1 nM

B6: comG GC-72%: box 1 labelled (dsDNA)
DNA 1: B1 DNA 1 with A43G, A46C, T47G, A48C, A53G, T54G
DNA 2: B1 DNA 2 with A40C, T41C, T46G, A47C, T48G, T51C
modifications: amino-C6-dT/dA at dye sites
- apparent K (half saturation) [7]: 17 ± 1 nM

B7: comG Mismatch: box 1 labelled (dsDNA)
DNA 1: B1 DNA 1 with T47A, A48T, T49A, A50T
DNA 2: B1 DNA 2
modifications: amino-C6-dT/dA at dye sites
- apparent K (half saturation) [8]: 14 ± 1 nM

B8: comK: box 1 labelled (dsDNA)
DNA 1: CTTATGAAAGTAAAATCGGTTTATTACTAGTCATTTAGTACCATTAAATATCATTAAAAGATGATTTTATCTTAAATG
DNA 2: CATTTAAGATAAAATCATCTTTTAATGATATTTAATGGTACTAAATGACTAGTAATAAACCGATTTTACTTTCATAAG
modifications: amino-C6-dT/dA at dye sites
- apparent K (half saturation) [9]: 21 ± 2 nM

B9: addAB1: box 1 labelled (dsDNA)
DNA 1: B4 DNA 1
DNA 2: B4 DNA 2
modifications: amino-C6-dT/dA at dye sites
- apparent K (half saturation) [10]: 25 ± 6 nM
